Measurements as given in US9371519B2, “Complex type sugar chain hydrolase” (National Institute of Advanced Industrial Science and …, priority 2011, dated 2016).

B1: Endo-Cp: endo-β-N-acetylglucosaminidase from Candida parapolymorpha DL-1 ATCC26012, amino acid sequence SEQ ID NO. 5, 745 amino acids (protein, listed as Candida parapolymorpha)
chain: MPRNTAKHSSLPQTNLPLSSLESSFFDSLDELANWERRIHEKSFELDELNKPTEKLAHYTRARQQSTSEDVKLLVCHDLKGGYQVNEDEDPLGYFPHPDGQHYFLQYPQLVDKFVYFSHHRVSIPPVSWINVCHRNAIKCLGTVIFEGNTYRDFEEADKLLTKQDGEYVFVRCLVALVEYFQFDGYLFNIETRFSNTRIASLLEPFLEQLRAELHVRNPSTELIWYDSYIYPENRVLYKNGVTEANYNFFSCCDSFFTNYWWNVKHLQDNIKNVGVLGSRLKVYAGYDVWGRGTMIGKGGYDSALACQMIKKYRSNVALFAPAWTYEYLARKDFTQNDTRFWIGLFDGESSMATTFKPYSSPLYKINDSNFVFYTNFGSGEGCAFYECGEKVYRDNWVNGSLQMEIPYAIHTRNKNGIQWTLSKEDSFHGGSCVEIKYNEVVDDKGYQVFNNQTINSFSLFSFVQDCSFPTVNVKLTYKLNHKTKSFFKLKIGYYIERRYRTVQKVRSGCLVVPLLSTNDQWFTIEEPFHVSLQNSHEFIVLDSATIFYEETEDPFMRAHVVEDQSTSSVIDNEEYEKLMNSEIYFDDEDEDWILVPSDISMESTDNGGRENHTWKVISNQIRKKHPKSHPSTSPVLKLGELAIINANDYPSDSFFKLMPVNSIDVRRWEGKILLIWKTNQDSVLYHLIFVDDVFQGISLVSKFVFEDQAVDEKSFKTKSGGSTKVRIDTVNRLGILVKGTDM
B2: Endo-Pa: endo-β-N-acetylglucosaminidase from Pichia anomala ATCC36904, amino acid sequence SEQ ID NO. 9, 656 amino acids (protein, listed as Pichia anomala)
chain: MQHDHAAIKFEEDSISSQRFSSLDEVEKWYNTKNRSPLDDLRIPRESLSHYNRFRDNNDEIKVLVCHDFKGNYQEGEDENPLGYFPHSSGQHYFIQFPSLVDLFIFFSHYKIAVPPVSWINSLHRQGIPVLGTLIFEGTDVSESDKLLEKNENGDFKYLEILCELVRHYGFDGWLVNMESHFSSVAKAQDLLLFDEALRSTLHLKVPGSKLIWYDSLITQKNRVFYQNAVNEWNYDHFSTSDLFFTNYWWNEEDLKRNILNIGLQGVKQKLFVGVDIWGRGSRIGNGGFESGLAINYLKRYSTNVALFAPAWTYENFEEDQFLIKDRKFWIGDQTSDETGGSVATYVSHYTTPVYVKDQNVKFYTNFSVGEGTKYRVFAHTVFKNNWVNGNLQLPTPIIDNEKRIDIYYKESFNGGSSLKVTQRNSILNDGKSNILQLFSFKNDIHSNNLNVSVSFKYLSEIPLNSTFQLEIKFYIERRYRSVTRVRDGTFKLPLAFSNKNWKYIETSFALPRLQIREHFVLEGLQIRWVDNVDELSSSIGTSGDFTESWIIVPQNSDPNAVYELLIGDLLVEGIKTANGNIDAVTKLSRKITLDSRSILATWKDDTEVLYWIIYVNAKFLGIAHKSLWRVQRGDKLRVDVFTRSGKLVKGEDIFI
B3: Endo-Zr: endo-β-N-acetylglucosaminidase from Zygosaccharomyces rouxii ATCC2623, amino acid sequence SEQ ID NO. 13, 639 amino acids (protein, listed as Zygosaccharomyces rouxii)
chain: MKRINQVPGKPEITSLYFDDLNSLQRWFDKGFMDSRDLSNVPKERYSNYVKFEKDSIITIPNLSARKTEIIVCHDFKGGYQSGHDLYPNGQYGTESCKPYSLRYPEIVDKFVYFSHHCVTIPPSPWTNYLHRHSIPVLGTLILEHYPHNGELFKKNAKGEFLYVKYLVELCRKFHFEGWLINFETVFGNNSKQVIPFLRELTARVECEIYGGSVIWYDAFTTFSNKPSHQNEVNLFNYDAYENSSQFMTNYMWDSHNVGNSLRNVGALGMHSHVALGVDVWGRNMQVCRGGFESNIAIYYAKRFGTNAVIFAPGWTYENFGEDQFYEKDDIFWGNIKSTLQLDSYSDSQLSSWFVSESKKTRYFTTFFSTGSGNFFNLNGRRISNDNWVQLGLSTPFPVNSHSYLSFKDSFVGGSCLALPLSPMENGKLHLFRFEQFIKDQQKTSDSEIRVKLSYKSLGALPPVKLVIKCFVIRRGKRSKTILKVDDVSLVLPLSHSACQTAQGSTKWAVVEQIVPLPSLESRFLEEYYVEDAHLEWTMDNNHDEWLMVPERTEDLDCKLLIGSLCLEIGPHEDNNKRQIVRNGPQLSWQDNESSFMWLKLQDGKLDSVLFTPTTKVNGKQPTILECGRNGTLKFVVKK
B4: Endo-Om: endo-β-N-acetylglucosaminidase from methylotrophic yeast Ogataea minuta IFO10746, amino acid sequence SEQ ID NO. 1, 772 amino acids (protein, listed as Ogataea minuta)
chain: MAQSQLLGGAVRPVFFDKLEELRRWHTQSANLSRESELDSLNVATEPFSSYERAQTGSGSRSSEPVPGDKEDPPIKLMVCHDFKGGYQDYEDAQPLGYFPHPTGSRYFLQYPQLIDQFVYFSHHRVTVPPVNWINFCHRNGIKCFGTVIFEGNASKDFEELDRLVSRDEKGDFVFVDALIKLAAHYGFDGYLLNIETTFSNTKIAADLEPFAEQLKSGLHCLDSKNELIWYDSYVFPANKVSYTNGVTESNYNFFSLSDAFFSNYWWNIKNLQENIKNVGVLGVQKKIYVGYDVWGRGTLVGKGGFDSSLACKMIAKFKSNVALFAPAWTYESLGPKDFNQNDARFWIGLFENESSISSTVPPHSSAVYKINESSFIFYTNFSSGEGNRFFSKGSEVYRKNWVNGSLQFDLPIDLHRKDKNGLQWALDKSDAFHGGACLEIKYSEIKDENGYQIFNNQMVSDFTLFNFTKECHFPTVNVKVTYKLNHKTKSTFKIKIKYIIERRFRSVQTVRTGYLTIPLLSTSGKWFTVEESFQINLQTSHEYIVLESAHVTYDEDRSADSFFRSYIVEDSAITSVIDNEEYEKLINSEIYNDDEDEDWILVPSDVSISSSESQSNDSKTQYLGRKLFGNKSTPKTRTLEGTAPLLRIGEFAIISANNYPSSNFLAVTSVKSIESSRLEGDSLVLLNWQVGEGHQKGVCYYIIYVNGAVVGLSVAPKFIYQDTELASENSASARSNYKKSGLGSSSDRKSKVRVDSVDKLGNVFTGSEVWV

Test: Study of optimal reaction conditions (pH and temperature)
Assay type: biochemical
Settings: 10 μM NGA2-Asn-Fmoc; buffers pH 3.5-9.0
Description: Study of the optimal reaction pH for Endo-Om was carried out as follows. A reaction solution containing any of various buffers having a final concentration of 100 mM, 0.5 M of NaCl, 10 μM of NGA2-Asn-Fmoc, and an Endo-Om purified enzyme solution (total volume: 10 μl) was incubated at 50° C. for 1 hour, and heated at 95° C. for 5 minutes, thereby stopping the enzyme reaction. The buffers used herein were a sodium citrate buffer (pH 3.5-5.5), a sodium acetate buffer (pH 4.5-6.0), a sodium phosphate buffer (pH 6.0-7.5), a MOPS-NaOH buffer (pH 6.5-8.0), and a Tris-HCl buffer (pH 8.0-9.0). The reaction solution was subjected to HPLC by the method described in Example 4, and the enzymatic activity was calculated. The optimal reaction temperature was studied by changing the reaction temperature in the activity measurement method described in Example 4 in the range of 10° C. to 60° C.
(§1) Study of the optimal reaction pH for Endo-Cp was carried out as follows. A reaction solution containing any of various buffers having a final concentration of 100 mM, 0.5 M of NaCl, 10 μM of NGA2-Asn-Fmoc, and an Endo-Cp partially purified enzyme solution (total volume: 10 μl) was incubated at 30° C. for 3 hours, and heated at 95° C. for 5 minutes, thereby stopping the enzyme reaction. The buffers used herein were a sodium citrate buffer (pH 3.5-5.5), a sodium acetate buffer (pH 4.5-6.0), a sodium phosphate buffer (pH 6.0-7.5), a MOPS-NaOH buffer (pH 6.5-8.0), and a Tris-HCl buffer (pH 8.0-9.0). The reaction solution was subjected to HPLC by the method described in Example 8, and the enzymatic activity was calculated. The optimal reaction temperature was studied by changing the reaction temperature in the activity measurement method described in Example 8 in the range of 10° C. to 70° C.
as §1, with “Endo-Pa” for “Endo-Cp”, “12,” for “8,”, “The optimal reaction temperature was studied by changing the reaction temperature in the activity measurement method described in Example 8 in the range of 10° C. to 70° C.” left out
Study of the optimal reaction pH for Endo-Zr was carried out as follows. […] The reaction solution was subjected to HPLC by the method described in Example 16, and the enzymatic activity was calculated. […]

| Molecule | Optimal pH (optimal reaction pH) |
| --- | --- |
| B1 | about 5.5 |
| B2 | 5.0-5.5 |
| B3 | 4.5-5.0 |
| B4 | about 5.5 |
